From publication PMC4650670 (Scientific Reports, 2015)

Target: human cytoskeletal actin, filamentous (F-actin; β- and γ-actins) (human, UniProt P60709 1-375; P63261 1-375)
Test: ITC
Conditions: both partners purified

B1: VopV_(rep1) (residues 361-428 of the type III secretion effector VopV) (domain or fragment)
chain: WPEVKPAHRLITTSGNAKIDGNPGYRNARVDVDGQTVGYTRNERGGSQPQSSGVHTLQGSQQPSVEPS
Kd: 54.4 nM
